Data reported in patent US7396905B1, “Calcipressins: endogenous inhibitors of calcineurin, uses and reagents related thereto” (priority 1999, dated 2008).

Legend:
[1] = tested on: calcineurin-dependent nuclear import of NF-AT4; test: Calcineurin-dependent NF-AT4 nuclear import assay in BHK cells; assay type: cell-based, baby hamster; conditions: co-expressed with GFP-NF-AT4 in BHK cells; calcium ionophore
Description: This assay monitors the subcellular location of GFP-tagged NF-AT4, a transcription factor that resides in the cytoplasm of unstimulated BHK cells. Following stimulation of BHK cells with ionomycin, a calcium ionophore, GFP-NF-AT4 translocates to the nucleus with a t1/2 of five minutes. This translocation event is accompanied by a dephosphorylation of NF-AT4 in a process dependent on calcineurin.
Baby hamster kidney cells were grown on sterile glass coverslips in DMEM media with 10% fetal calf serum and transfected using calcium phosphate methods (Heald et al., 1993). […] NF-AT4 expression was based on the vector pcDNA3-GFP-NF-AT4 (Shibasaki et al., 1996). Transfected cells were grown for 18 hours prior to drug treatments. Cells were fixed 30 minutes after ionomycin (0.5 uM) treatment or washout using 3% formaldehyde in PBS for 10 minutes at room temperature.

[2] = tested on: calcineurin A and B subunits produced by in vitro translation; test: In vitro binding of GST fusion proteins to 35S-labelled calcineurin subunits; conditions: GST fusion proteins purified from E. coli
Description: 5A. […] Associated calcineurin subunits were detected and quantified by SDS-polyacrylamide gel electrophoresis and autoradiography. The same deletion mutants were co-expressed with GFP-NF-AT4 in BHK cells and assayed for their ability to block calcium ionophore-stimulated NF-AT4 nuclear import.
Purified GsT-Csp1 and -Csp2 fusion proteins were mixed with calcineurin in vitro translation lysates in buffer A (50 mM Tris-HCl, pH7.5, 140 mM NaCl, 1 mM CaCl2, and 0.4% Triton X-100), incubated for 60 minutes at 4 degrees, and absorbed with glutathione-agarose beads. The agarose beads were washed three times with buffer A, resuspended in 2×SDS sample buffer, and fractionated on SDS-polyacrylamide gels. Dried gels were analyzed by the phosphoImager to detect and quantify GsT-Csp1 or -Csp2-associated calcineurin subunits.

B1: Csp1 1-100: Csp1 lacking the C-terminal half (protein)
chain: MEEVDLQDLPSATIACHLDPRVFVDGLCRAKFESLFRTYDKDTTFQYFKSFKRVRINFSNPLSAADARLRLHKTEFLGKEMKLYFAQTLHIGSSHLAPPN
modifications: left off: a dimerising Fc or GST
notes: Csp1 lacking the C-terminal half
B1 was tested, and the “inhibition of NF-AT4 nuclear import stimulated by calcium ionophore” value [1] was “fails to block calcium-activation NF-AT4 nuclear import” and the “interaction with calcineurin in vitro” value [2] was “no obvious interaction with calcineurin in vitro”.
